Test results from the supplement of paper PMC5998384.

Legend:
HeLa Kyoto [1] = experiment: thermal stability score vs G1/S (z-score of summed log2 fold changes over temperatures); higher = more thermally stable than in G1/S
HeLa Kyoto [2] = experiment: melting temperature (median over replicates), in situ; higher = more thermally stable
HeLa Kyoto [3] = experiment: solubility in G1/S (NP-40 vs SDS abundance) (log2 ratio); higher = more soluble; settings: cell cycle stage: G1/S
HeLa Kyoto [4] = experiment: solubility change mitosis vs G1/S (difference of NP-40 vs SDS log2 ratios) (log2 ratio difference); higher = more soluble in mitosis
[5] = cell cycle stage: early G1 (4.5 h after nocodazole release)
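Wherever melting temperature (median over replicates), in situ is given: HeLa Kyoto cells synchronized by double thymidine or nocodazole block, proteins quantified by TMT10plex mass spectrometry, three independent biological replicates.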
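Wherever solubility change mitosis vs G1/S (difference of NP-40 vs SDS log2 ratios) is given: synchronized HeLa Kyoto cells (double thymidine block for G1/S, nocodazole release for mitosis), protein amounts in NP-40 versus SDS lysates quantified by mass spectrometry, three biological replicates.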
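Wherever solubility in G1/S (NP-40 vs SDS abundance) is given: HeLa Kyoto cells arrested at G1/S by double thymidine block, proteins quantified by TMT10plex mass spectrometry in mild NP-40 versus SDS extracts, three biological replicates.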
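Wherever thermal stability score vs G1/S (z-score of summed log2 fold changes over temperatures) is given: synchronized HeLa Kyoto cells, proteins quantified by TMT10plex mass spectrometry, three biological replicates, mitosis taken 0.5 h after nocodazole release, G1/S directly after double thymidine block.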

| Sequence | thermal stability score (HeLa Kyoto [1]; [5]) | thermal stability score (HeLa Kyoto [1]; cell cycle stage: mitosis) | melting temperature (HeLa Kyoto [2]; cell cycle stage: G1/S) [°C] | melting temperature (HeLa Kyoto [2]; cell cycle stage: mitosis) [°C] | solubility in G1/S (log2) (HeLa Kyoto [3]) | solubility change mitosis (log2) (HeLa Kyoto [4]) |
| --- | --- | --- | --- | --- | --- | --- |
| MSGFDDPGIFYSDSFGGDAQADEGQARKSQLQRRFKEFLRQYRVGTDRTGFTFKYRDELKRHYNLGEYWIEVEMEDLASFDEDLADYLYKQPAEHLQLLEEAAKEVADEVTRPRPSGEEVLQDIQVMLKSDASPSSIRSLKSDMMSHLVKIPGIIIAASAVRAKATRISIQCRSCRNTLTNIAMRPGLEGYALPRKCNTDQAGRPKCPLDPYFIMPDKCKCVDFQTLKLQELPDAVPHGEMPRHMQLYCDRYLCDKVVPGNRVTIMGIYSIKKFGLTTSRGRDRVGVGIRSSYIRVLGIQVDTDGSGRSFAGAVSPQEEEEFRRLAALPNVYEVISKSIAPSIFGGTDMKKAIACLLFGGSRKRLPDGLTRRGDINLLMLGDPGTAKSQLLKFVEKCSPIGVYTSGKGSSAAGLTASVMRDPSSRNFIMEGGAMVLADGGVVCIDEFDKMREDDRVAIHEAMEQQTISIAKAGITTTLNSRCSVLAAANSVFGRWDETKGEDNIDFMPTILSRFDMIFIVKDEHNEERDVMLAKHVITLHVSALTQTQAVEGEIDLAKLKKFIAYCRVKCGPRLSAEAAEKLKNRYIIMRSGARQHERDSDRRSSIPITVRQLEAIVRIAEALSKMKLQPFATEADVEEALRLFQVSTLDAALSGTLSGVEGFTSQEDQEMLSRIEKQLKRRFAIGSQVSEHSIIKDFTKQKYPEHAIHKVLQLMLRRGEIQHRMQRKVLYRLK [MCM5] | 1.16 | 0.714 | 51.9 | 51.4 | -0.322 | -0.0997 |
| MSGFSPELIDYLEGKISFEEFERRREERKTREKKSLQEKGKLSAEENPDDSEVPSSSGINSTKSQDKDVNEGETSDGVRKSVHKVFASMLGENEDDEEEEEEEEEEEEEEETPEQPTAGDVFVLEMVLNRETKKMMKEKRPRSKLPRALRGLMGEANIRFARGEREEAILMCMEIIRQAPLAYEPFSTLAMIYEDQGDMEKSLQFELIAAHLNPSDTEEWVRLAEMSLEQDNIKQAIFCYTKALKYEPTNVRYLWERSSLYEQMGDHKMAMDGYRRILNLLSPSDGERFMQLARDMAKSYYEANDVTSAINIIDEAFSKHQGLVSMEDVNIAAELYISNKQYDKALEIITDFSGIVLEKKTSEEGTSEENKAPENVTCTIPDGVPIDITVKLMVCLVHLNILEPLNPLLTTLVEQNPEDMGDLYLDVAEAFLDVGEYNSALPLLSALVCSERYNLAVVWLRHAECLKALGYMERAAESYGKVVDLAPLHLDARISLSTLQQQLGQPEKALEALEPMYDPDTLAQDANAAQQELKLLLHRSTLLFSQGKMYGYVDTLLTMLAMLLKVAMNRAQVCLISSSKSGERHLYLIKVSRDKISDSNDQESANCDAKAIFAVLTSVLTKDDWWNLLLKAIYSLCDLSRFQEAELLVDSSLEYYSFYDDRQKRKELEYFGLSAAILDKNFRKAYNYIRIMVMENVNKPQLWNIFNQVTMHSQDVRHHRFCLRLMLKNPENHALCVLNGHNAFVSGSFKHALGQYVQAFRTHPDEPLYSFCIGLTFIHMASQKYVLRRHALIVQGFSFLNRYLSLRGPCQESFYNLGRGLHQLGLIHLAIHYYQKALELPPLVVEGIELDQLDLRRDIAYNLSLIYQSSGNTGMAQTLLYTYCSI [GTF3C3] | 2.95 | 5.2 | 45.9 | 49.1 | -0.231 | -0.0144 |
| MSGLSGPPARRGPFPLALLLLFLLGPRLVLAISFHLPINSRKCLREEIHKDLLVTGAYEISDQSGGAGGLRSHLKITDSAGHILYSKEDATKGKFAFTTEDYDMFEVCFESKGTGRIPDQLVILDMKHGVEAKNYEEIAKVEKLKPLEVELRRLEDLSESIVNDFAYMKKREEEMRDTNESTNTRVLYFSIFSMFCLIGLATWQVFYLRRFFKAKKLIE [TMED10] | 0.651 | -0.174 | 55.3 | 55.8 | 0.076 | -0.0383 |
| MSGPRPVVLSGPSGAGKSTLLKRLLQEHSGIFGFSVSHTTRNPRPGEENGKDYYFVTREVMQRDIAAGDFIEHAEFSGNLYGTSKVAVQAVQAMNRICVLDVDLQGVRNIKATDLRPIYISVQPPSLHVLEQRLRQRNTETEESLVKRLAAAQADMESSKEPGLFDVVIINDSLDQAYAELKEALSEEIKKAQRTGA [GUK1] | -0.1 | -0.804 | 48.9 | 50.2 | 0.604 | 0.047 |
| MSGQPPPPPPQQQQQQQQLSPPPPAALAPVSGVVLPAPPAVSAGSSPAGSPGGGAGGEGLGAAAAALLLHPPPPPPPATAAPPPPPPPPPPPASAAAPASGPPAPPGLAAGPGPAGGAPTPALVAGSSAAAPFPHGDSALNEQEKELQRRLKRLYPAVDEQETPLPRSWSPKDKFSYIGLSQNNLRVHYKGHGKTPKDAASVRATHPIPAACGIYYFEVKIVSKGRDGYMGIGLSAQGVNMNRLPGWDKHSYGYHGDDGHSFCSSGTGQPYGPTFTTGDVIGCCVNLINNTCFYTKNGHSLGIAFTDLPPNLYPTVGLQTPGEVVDANFGQHPFVFDIEDYMREWRTKIQAQIDRFPIGDREGEWQTMIQKMVSSYLVHHGYCATAEAFARSTDQTVLEELASIKNRQRIQKLVLAGRMGEAIETTQQLYPSLLERNPNLLFTLKVRQFIEMVNGTDSEVRCLGGRSPKSQDSYPVSPRPFSSPSMSPSHGMNIHNLASGKGSTAHFSGFESCSNGVISNKAHQSYCHSNKHQSSNLNVPELNSINMSRSQQVNNFTSNDVDMETDHYSNGVGETSSNGFLNGSSKHDHEMEDCDTEMEVDSSQLRRQLCGGSQAAIERMIHFGRELQAMSEQLRRDCGKNTANKKMLKDAFSLLAYSDPWNSPVGNQLDPIQREPVCSALNSAILETHNLPKQPPLALAMGQATQCLGLMARSGIGSCAFATVEDYLH [RANBP9] | -0.277 | -0.378 | 51.6 | 51.1 | 0.115 | -0.126 |
| MSGQSLTDRITAAQHSVTGSAVSKTVCKATTHEIMGPKKKHLDYLIQCTNEMNVNIPQLADSLFERTTNSSWVVVFKSLITTHHLMVYGNERFIQYLASRNTLFNLSNFLDKSGLQGYDMSTFIRRYSRYLNEKAVSYRQVAFDFTKVKRGADGVMRTMNTEKLLKTVPIIQNQMDALLDFNVNSNELTNGVINAAFMLLFKDAIRLFAAYNEGIINLLEKYFDMKKNQCKEGLDIYKKFLTRMTRISEFLKVAEQVGIDRGDIPDLSQAPSSLLDALEQHLASLEGKKIKDSTAASRATTLSNAVSSLASTGLSLTKVDEREKQAALEEEQARLKALKEQRLKELAKKPHTSLTTAASPVSTSAGGIMTAPAIDIFSTPSSSNSTSKLPNDLLDLQQPTFHPSVHPMSTASQVASTWGDPFSATVDAVDDAIPSLNPFLTKSSGDVHLSISSDVSTFTTRTPTHEMFVGFTPSPVAQPHPSAGLNVDFESVFGNKSTNVIVDSGGFDELGGLLKPTVASQNQNLPVAKLPPSKLVSDDLDSSLANLVGNLGIGNGTTKNDVNWSQPGEKKLTGGSNWQPKVAPTTAWNAATMAPPVMAYPATTPTGMIGYGIPPQMGSVPVMTQPTLIYSQPVMRPPNPFGPVSGAQIQFM [PICALM] | -1.28 | -1.63 | 53.7 | 53.1 | 0.0523 | -0.0327 |
| MSGRSKRESRGSTRGKRESESRGSSGRVKRERDREREPEAASSRGSPVRVKREFEPASAREAPASVVPFVRVKREREVDEDSEPEREVRAKNGRVDSEDRRSRHCPYLDTINRSVLDFDFEKLCSISLSHINAYACLVCGKYFQGRGLKSHAYIHSVQFSHHVFLNLHTLKFYCLPDNYEIIDSSLEDITYVLKPTFTKQQIANLDKQAKLSRAYDGTTYLPGIVGLNNIKANDYANAVLQALSNVPPLRNYFLEEDNYKNIKRPPGDIMFLLVQRFGELMRKLWNPRNFKAHVSPHEMLQAVVLCSKKTFQITKQGDGVDFLSWFLNALHSALGGTKKKKKTIVTDVFQGSMRIFTKKLPHPDLPAEEKEQLLHNDEYQETMVESTFMYLTLDLPTAPLYKDEKEQLIIPQVPLFNILAKFNGITEKEYKTYKENFLKRFQLTKLPPYLIFCIKRFTKNNFFVEKNPTIVNFPITNVDLREYLSEEVQAVHKNTTYDLIANIVHDGKPSEGSYRIHVLHHGTGKWYELQDLQVTDILPQMITLSEAYIQIWKRRDNDETNQQGA [USP39] | -0.187 | -0.193 | 51.4 | 51.9 | -0.4 | 0.178 |
| MSGSFELSVQDLNDLLSDGSGCYSLPSQPCNEVTPRIYVGNASVAQDIPKLQKLGITHVLNAAEGRSFMHVNTNANFYKDSGITYLGIKANDTQEFNLSAYFERAADFIDQALAQKNGRVLVHCREGYSRSPTLVIAYLMMRQKMDVKSALSIVRQNREIGPNDGFLAQLCQLNDRLAKEGKLKP [DUSP3] | 0.0996 | -0.0543 | 50.4 | 51 | 0.676 | 0.131 |
